Test results as given in publication PMC9712583, “Time-resolved β-lactam cleavage by L1 metallo-β-lactamase” (Nature Communications, 2022).

Molecular target: the molecule itself
Test: SEC; L1 in solution; conditions not given

B1: L1 metallo-β-lactamase (MBL) from Stenotrophomonas maltophilia (enzyme)
chain: SAAEAPLPQLRAYTVDASWLQPMAPLQVADHTWQIGTEDLTALLVQTAEGAVLLDGGMPQMAGHLLDNMKLRGVAPQDLRLILLSHAHADHAGPVAELKRRTGAHVAANAETAVLLARGGSNDLHFGDGITYPPASADRIIMDGEVVTVGGIAFTAHFMPGHTPGSTAWTWTDTRDGKPVRIAYADSLSAPGYQLKGNPRYPRLIEDYKRSFATVRALPCDLLLTPHPGASNWNYAVGSKASAEALTCNAYADAAEKKFDAQLARETAGTR
notes: L1 metallo-β-lactamase, Stenotrophomonas maltophilia K279a, residues 20-290, amplified from genomic DNA and cloned into pMCSG53; Homotetramer; Active-site residue numbers in the text (H116, H118, D120 ...) appear to follow the standard MBL numbering, not the 20-290 numbering of the construct; also called L1 MBL; source: E. coli BL21 DE3 (Gold), purified (IMAC, TEV cleavage, second IMAC); not …
- stoichiometry N: 4
